Test results reported in US8080531B2, “Methods for modulating checkpoint activation through TopBP1” (California Institute of Technology, priority 2006, dated 2011).

What was measured:
Xatr-Xatrip [1] = target: Xatr-Xatrip (Xenopus laevis, UniProt Q9DE14); experiment: Kinase assay of Xatr-Xatrip complexes isolated from Xenopus egg extracts; format: biochemical; set-up: increase of kinase activity of Xatr; other: Xatr immunoprecipitated from Xatrip-depleted extracts
Description: (§1) Specifically, Applicants first isolated Xatr from egg extracts by pull-downs with FLAG-tagged Xenopus ATRIP (Xatrip). For these experiments, Applicants used both full-length Xatrip and an N-terminal truncation mutant (ΔN222) that supports normal Xatr-dependent activation of Xchk1 in egg extracts (Kumagai et al., 2004; Kim et al., 2005).
(§2) Applicants eluted the beads with FLAG peptide and mixed the eluates with a His6-tagged version of XtopBP1 that had been purified from baculovirus-infected insect cells (FIG. 1B). Finally, Applicants added ^32P-ATP and PHAS-I, a commonly used model substrate for ATR (Abraham, 2001).
Xatrip-FLAG and XatripΔN222-FLAG (20 ng/μl each) were incubated in interphase extracts containing anti-FLAG M2 antibody beads (Sigma) for 60 min at room temperature. The beads were isolated and washed twice with buffer A (10 mM HEPES-KOH (pH 7.5), 150 mM NaCl, 0.1% CHAPS, and 2.5 mM EGTA) and twice with HEPES-buffered saline (HBS; 10 mM HEPES-KOH (pH 7.5) and 150 mM NaCl). Xatr-Xatrip complexes were eluted in one-tenth the volume of the egg extract in HBS containing 0.1 mg/ml 3×-FLAG peptide (Sigma) for 60 min at 4° C. Eluates (2 μl) were used for kinase assays as described below. […]

Xatr-Xatrip [2] = experiment: as above; format: biochemical; conditions: for activation of Xatr kinase activity toward PHAS-I: isolated Xatr-Xatrip complexes, 32P-ATP, result in words
Description: as §1, §2
Xatrip-FLAG and XatripΔN222-FLAG (20 ng/μl each) were incubated in interphase extracts containing anti-FLAG M2 antibody beads (Sigma) for 60 min at room temperature. The beads were isolated and washed twice with buffer A (10 mM HEPES-KOH (pH 7.5), 150 mM NaCl, 0.1% CHAPS, and 2.5 mM EGTA) and twice with HEPES-buffered saline (HBS; 10 mM HEPES-KOH (pH 7.5) and 150 mM NaCl). Xatr-Xatrip complexes were eluted in one-tenth the volume of the egg extract in HBS containing 0.1 mg/ml 3×-FLAG peptide (Sigma) for 60 min at 4° C. Eluates (2 μl) were used for kinase assays as described below.
(§3) Samples were incubated in 20 μl kinase buffer (50 mM Tris-HCl (pH 7.5), 10 mM MgCl2, 1 mM dithiothreitol, 100 μM nonradioactive ATP, and 100 μCi/ml [γ-^32P]ATP) containing 12.5 μg/ml PHAS-I or 50 μg/ml GST-Xmcm2 (62-122) for 30 min at room temperature. GST-XtopBP1 (972-1279) was added at a final concentration of 100 μg/ml unless indicated otherwise. In some cases, GST-Xmcm2 (62-122), GST-Xchk1 (306-352), or full-length Xchk1-Myc-His6 were used as substrates with only […] nonradioactive ATP. Reactions were terminated by boiling in gel sample buffer.

Xchk1 [3] = experiment: Checkpoint-dependent phosphorylation of Xchk1 in XtopBP1-depleted egg extracts with aphidicolin and sperm nuclei; format: biochemical, Xenopus; conditions: added back to XtopBP1-depleted extract, aphidicolin
Description: Applicants proceeded to remove endogenous XtopBP1 from egg extracts by immunodepletion with anti-XtopBP1 antibodies (FIG. 7C). In parallel, Applicants used control antibodies to prepare mock-depleted extract. Next, Applicants added back wild-type His6-XtopBP1 or the His6-XtopBP1-W1138R mutant to aliquots of the XtopBP1-depleted extract. Finally, Applicants added aphidicolin and demembranated Xenopus sperm nuclei to the various extracts in order to create stalled replication forks and then examined phosphorylation of Xchk1 (FIG. 7D).
(§4) Extracts from Xenopus eggs were prepared as described (Kumagai and Dunphy, 2000). A DNA replication checkpoint response was induced by addition of 50 μg/ml aphidicolin into extracts containing demembranated sperm nuclei (3000 per μl) (Kumagai and Dunphy, 2000). To monitor DNA replication, extracts containing 1000 sperm nuclei/μl were incubated with [α-^32P]dATP (Yoo et al., 2004).
Xatr and Xatrip were immunodepleted as described (Kumagai et al., 2004). For immunodepletion of XtopBP1, we incubated 100 μl egg extract twice for 60 min with 10 μl Affiprep protein A beads (BioRad) containing 35 μg anti-XtopBP1 antibodies.

Xatr-Xatrip [4] = experiment: Glutathione bead pull-down of Xatr and Xatrip from egg extracts; format: binding, Xenopus; conditions: egg extracts, immunoblotting
Protocol: Specifically, Applicants incubated glutathione beads containing GST-XtopBP1 (972-1279) in egg extracts, reisolated the beads, and performed immunoblotting for both Xatr and Xatrip. […] In addition, in other experiments, there was no binding of Xatr or Xatrip to beads containing GST fusions of the 1-348, 333-646, or 623-984 segments from XtopBP1 (data not shown).
Applicants also tested to see if the association of XtopBP1 with Xatr depends upon Xatrip. For this experiment, Applicants removed endogenous Xatrip from egg extracts by immunodepletion with anti-Xatrip antibodies. As described previously, this procedure leaves behind approximately 30% of the endogenous Xatr, the fraction that is not in a complex with Xatrip (Kumagai et al., 2004). Next, Applicants added GST-XtopBP1 (972-1279) to the Xatrip-depleted extracts and to mock-depleted extracts that had been prepared in parallel.

human ATR [5] = target: T1, human ATR (Homo sapiens, UniProt Q13535); experiment: Kinase assay of recombinant human FLAG-ATR against S92 of GST-Xmcm2 (62-122); format: biochemical; conditions: wild-type human FLAG-ATR from U2OS nuclear extracts
T1 construct: expressed in transfected cells; host or cells: U2OS GW33 cells (doxycycline-inducible), nuclear extract, anti-FLAG purification
Protocol: (§5) Specifically, Applicants isolated wild-type and kinase-deficient versions of FLAG-tagged human ATR from nuclear extracts of U2OS cells that conditionally express these proteins (FIG. 5C). The recombinant ATR proteins were purified with anti-FLAG magnetic beads under conditions that preserve the binding of endogenous ATRIP (Ünsal-Kacmaz and Sancar, 2004). Next, Applicants incubated both the wild-type and kinase-deficient FLAG-ATR preparations in the absence or presence of GST-XtopBP1 (972-1279), and measured kinase activity against S92 of the GST-Xmcm2 (62-122) peptide.
as §3
(§6) U2OS cells conditionally expressing wild-type (GW33) or kinase-deficient (GK41) human FLAG-ATR were cultured as described (Nghiem et al., 2001). Cells were induced with 1 μg/ml doxycycline for 48 hr. Nuclear extracts were prepared as described (Dignam et al., 1983) except that nuclei were lysed by brief sonication and the concentration of NaCl in the nuclear isolation buffer was reduced to 350 mM in order to preserve the binding of endogenous ATRIP to recombinant ATR. FLAG-ATR proteins were isolated by an overnight incubation with anti-FLAG antibodies bound to protein G-magnetic beads (Dynal) and eluted with 3×-FLAG peptide.

human ATR [6] = experiment: as above; format: biochemical; conditions: kinase-deficient human FLAG-ATR
Protocol: as §5, §3, §6

Xchk1 [7] = experiment: Ectopic phosphorylation of 35S-Xchk1 in Xenopus egg extracts without checkpoint-inducing DNA; format: biochemical; conditions: 35S-Xchk1, tautomycin, no checkpoint-inducing DNA template
Protocol: Because the GST-XtopBP1 (972-1279) fragment could activate Xatr in vitro without the inclusion of DNA, Applicants reasoned that ectopic addition of this fragment to Xenopus egg extracts might also be able to trigger the Xatr-dependent phosphorylation of Xchk1 even in the absence of a checkpoint-inducing DNA template.
as §4

human Mcm2 on S108 = experiment: Phosphorylation of Mcm2 on S108 in transfected human 293T cells; format: cell-based; conditions: immunoblotting
Description: To pursue this issue further, Applicants asked whether the ATR-activating domain of TopBP1 could induce ATR-dependent phosphorylation in human cells. For this purpose, Applicants constructed a version of the enhanced green fluorescent protein (EGFP) containing the SV40 nuclear localization sequence and residues 978-1286 of human TopBP1 (equivalent to residues 972-1279 of XtopBP1). Applicants also produced the W1145R mutant of this plasmid (analogous to the W1138R mutant of XtopBP1). Applicants transfected plasmids encoding these proteins into human 293T cells and performed immunoblotting with anti-phosphopeptide antibodies that detect phosphorylation of human Mcm2 on S108 (which corresponds to S92 of Xmcm2) (Cortez et al., 2004; Yoo et al., 2004).
pEGFP-NLS-TopBP1 (978-1286), which encodes EGFP followed by a nuclear localization sequence (KKKRKV, SEQ ID NO: 11) and amino acids 978-1286 of human TopBP1, was prepared from pEGFP (Clontech) by standard polymerase chain reaction-based methods. Plasmids were transfected into 293T cells with Lipofectamine 2000 (Invitrogen).

Xatr-Xatrip, sequence (Q9DE14 whole entry, the tested form may be a part): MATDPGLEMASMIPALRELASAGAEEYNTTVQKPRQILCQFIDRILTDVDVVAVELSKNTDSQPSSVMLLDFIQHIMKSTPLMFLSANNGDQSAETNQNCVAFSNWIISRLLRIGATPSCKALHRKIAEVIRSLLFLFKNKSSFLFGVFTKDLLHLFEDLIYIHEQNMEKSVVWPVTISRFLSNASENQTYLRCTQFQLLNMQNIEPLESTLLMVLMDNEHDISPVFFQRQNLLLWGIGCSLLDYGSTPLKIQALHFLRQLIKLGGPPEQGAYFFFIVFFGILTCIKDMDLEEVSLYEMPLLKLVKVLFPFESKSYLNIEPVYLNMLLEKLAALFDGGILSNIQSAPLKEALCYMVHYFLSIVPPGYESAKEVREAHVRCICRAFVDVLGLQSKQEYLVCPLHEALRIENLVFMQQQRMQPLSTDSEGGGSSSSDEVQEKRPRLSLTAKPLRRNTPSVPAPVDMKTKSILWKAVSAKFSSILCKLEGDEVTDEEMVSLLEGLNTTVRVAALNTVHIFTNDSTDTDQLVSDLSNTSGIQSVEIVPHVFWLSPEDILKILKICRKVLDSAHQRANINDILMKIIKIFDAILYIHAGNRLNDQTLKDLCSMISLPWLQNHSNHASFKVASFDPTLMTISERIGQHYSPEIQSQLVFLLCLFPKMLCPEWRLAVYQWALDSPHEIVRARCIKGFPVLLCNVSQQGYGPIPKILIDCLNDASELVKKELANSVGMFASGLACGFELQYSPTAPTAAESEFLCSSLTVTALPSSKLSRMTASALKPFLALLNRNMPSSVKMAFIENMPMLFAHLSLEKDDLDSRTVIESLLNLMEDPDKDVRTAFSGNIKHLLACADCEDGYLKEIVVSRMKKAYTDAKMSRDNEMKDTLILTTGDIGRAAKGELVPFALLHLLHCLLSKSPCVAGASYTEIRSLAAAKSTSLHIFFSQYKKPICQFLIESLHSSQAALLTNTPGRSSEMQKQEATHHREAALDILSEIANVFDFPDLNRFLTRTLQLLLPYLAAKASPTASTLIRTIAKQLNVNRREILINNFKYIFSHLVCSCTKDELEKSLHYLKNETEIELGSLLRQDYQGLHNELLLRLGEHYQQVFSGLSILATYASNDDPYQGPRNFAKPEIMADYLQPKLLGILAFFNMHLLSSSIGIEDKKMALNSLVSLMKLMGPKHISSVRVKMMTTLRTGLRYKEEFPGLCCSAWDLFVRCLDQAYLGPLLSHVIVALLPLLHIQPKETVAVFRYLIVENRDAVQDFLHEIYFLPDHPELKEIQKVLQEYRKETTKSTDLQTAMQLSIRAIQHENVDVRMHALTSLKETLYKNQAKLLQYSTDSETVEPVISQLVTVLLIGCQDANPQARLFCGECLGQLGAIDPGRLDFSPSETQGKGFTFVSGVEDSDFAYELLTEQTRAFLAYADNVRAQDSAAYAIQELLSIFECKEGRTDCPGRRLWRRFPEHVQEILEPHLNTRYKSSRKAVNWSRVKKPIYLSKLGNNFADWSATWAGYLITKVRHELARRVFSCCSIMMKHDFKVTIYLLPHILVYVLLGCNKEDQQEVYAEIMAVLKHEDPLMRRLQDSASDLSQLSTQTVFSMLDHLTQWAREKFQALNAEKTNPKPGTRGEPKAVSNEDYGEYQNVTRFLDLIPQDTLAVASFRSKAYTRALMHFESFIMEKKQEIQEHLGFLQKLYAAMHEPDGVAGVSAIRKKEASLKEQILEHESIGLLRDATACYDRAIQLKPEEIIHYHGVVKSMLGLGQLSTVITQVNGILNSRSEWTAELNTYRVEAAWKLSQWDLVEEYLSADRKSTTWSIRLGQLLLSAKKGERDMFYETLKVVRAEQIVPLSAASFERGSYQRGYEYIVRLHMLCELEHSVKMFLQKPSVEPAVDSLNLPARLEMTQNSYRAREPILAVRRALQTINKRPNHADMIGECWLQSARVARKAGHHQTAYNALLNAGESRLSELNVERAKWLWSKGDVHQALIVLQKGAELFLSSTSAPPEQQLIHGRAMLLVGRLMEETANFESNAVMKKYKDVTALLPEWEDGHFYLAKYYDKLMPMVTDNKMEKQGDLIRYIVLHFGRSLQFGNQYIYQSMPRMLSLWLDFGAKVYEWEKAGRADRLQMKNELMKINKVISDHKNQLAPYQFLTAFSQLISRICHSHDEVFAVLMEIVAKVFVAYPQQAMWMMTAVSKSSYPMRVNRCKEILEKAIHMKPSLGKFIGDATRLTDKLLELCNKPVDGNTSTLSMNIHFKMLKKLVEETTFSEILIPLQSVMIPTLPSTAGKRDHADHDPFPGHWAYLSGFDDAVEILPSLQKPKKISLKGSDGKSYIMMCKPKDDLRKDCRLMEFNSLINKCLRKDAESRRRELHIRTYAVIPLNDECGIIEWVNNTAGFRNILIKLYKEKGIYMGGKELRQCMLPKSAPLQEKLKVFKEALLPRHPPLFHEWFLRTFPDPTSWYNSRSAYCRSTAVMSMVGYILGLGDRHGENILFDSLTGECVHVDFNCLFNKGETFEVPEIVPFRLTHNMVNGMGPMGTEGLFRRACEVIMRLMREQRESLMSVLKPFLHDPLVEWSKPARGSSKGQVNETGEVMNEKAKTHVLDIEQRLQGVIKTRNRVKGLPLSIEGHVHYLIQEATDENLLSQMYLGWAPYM
Xatr-Xatrip (Xenopus laevis, UniProt Q9DE14), sequence (Q9DE14 whole entry, the tested form may be a part): as above

Which IC50 (Xatr-Xatrip [1]; Xatr-XatripΔN222 activated by His6-XtopBP1, PHAS-I substrate, 0.04-5 mM caffeine, read-out: half-maximal inhibition of the XtopBP1-activated form of Xatr) does the source give for Cn1c(=O)c2c(ncn2C)n(C)c1=O [caffeine, reference compound] here?
Its IC50 is roughly 400 µM.

For “XtopBP1: His6-tagged full-length Xenopus TopBP1 purified from baculovirus-infected insect cells”, which “half-maximal induction of kinase activity” value (Xatr-Xatrip [2]; Xatr-XatripΔN222, PHAS-I substrate, dose-response 0.5-30 μg/ml XtopBP1) is on record?
The value was 10 to 15 µg/mL.

And the “induced kinase activity toward PHAS-I” value (Xatr-Xatrip [2]; XatripΔN222-FLAG preparation from Xatr-depleted extracts)?
Its value is “could not elicit any kinase activity”.

And the “induced kinase activity toward PHAS-I” value (Xatr-Xatrip [2]; XatripΔN222-FLAG preparation from mock-depleted extracts)?
The value was “induced strong kinase activity”.

What about the “activation of Xatr kinase activity toward PHAS-I” value (Xatr-Xatrip [2]) of the same molecule?
Its value is “very large increase”.

And the “kinase activity toward PHAS-I of the preparation alone” value (Xatr-Xatrip [2]; recombinant XtopBP1 without Xatr-Xatrip)?
The value was “negligible kinase activity”.

What about the “rescue of phosphorylation of Xchk1” value (Xchk1 [3]) of the same molecule?
The value was “rescue the phosphorylation of Xchk1 fully”.

What about the “increase of kinase activity of Xatr” value (Xatr-Xatrip [1]; Xatr immunoprecipitated from Xatrip-depleted extracts) of the same molecule?
The value was “could not significantly increase”.

B1: W1138R mutant of GST-XtopBP1 (972-1279): point mutant of the fragment in which the tryptophan in the WDDP motif was changed to arginine (protein)
chain: EQQKRVPEALYPHTYNPKMSLDISAVQDGSYTASKFSADTSLQQDENSELQLQQNNKFGETSDDQVKKAAGDGNPQNPSKDVKGALTQTLEMRENFQRQLQEFMSATSVVKPRGSVGRAGFDNSPCTPEGARSTRNGRSRVLEALRQSRQAMTDLNTEPSQNEQIIRDDPTAREERAKLVSNLQWPDSPSQYSEQLQHNMNDAGGNYTPAKESLTDSEIAELEACEFEPKSAMRTPVIENNLQSPTKPDHLTPTPQAPSIAFPLANPPVAPQPREKPVQPFSKEETLKERRFQLSSLDPQERIDYSQL
modifications: left off: a dimerising Fc or GST; small tags and cut ends
notes: point mutant of the fragment in which the tryptophan in the WDDP motif was changed to arginine
What does the source list for B1?
activation of Xatr kinase activity toward PHAS-I (Xatr-Xatrip [2]): totally lost its capacity; binding of Xatr and Xatrip to glutathione beads (Xatr-Xatrip [4]): retains significant ability to bind Xatr-Xatrip; kinase activity of wild-type FLAG-ATR (human ATR [5]): did not induce any activation; activity of kinase-deficient FLAG-ATR (human ATR [6]): neither the intact nor W1138R mutant form of GST-XtopBP1 (972-1279) had any effect; phosphorylation of Xchk1 in egg extracts (Xchk1 [7]): none of the ΔRQLQ, ΔWDDP, or W1138R mutants of the 972-1279 fragment could induce ectopic activation

B2: W1145R mutant: W1145R mutant of EGFP-NLS-TopBP1 (978-1286), analogous to the W1138R mutant of XtopBP1 (protein)
chain: KKKRKVAQECKHLPESLYPHTYNPKMSLDISAVQDGRLCNSRLLSAVSSTKDDEPDPLILEENDVDNMATNNKESAPSNGSGKNDSKGVLTQTLEMRENFQKQLQEIMSATSIVKPQGQRTSLSRSGCNSASSTPDSTRSARSGRSRVLEALRQSRQTVPDVNTEPSQNEQIIRDDPTAREERARLASNLQWPSCPTQYSELQVDIQNLEDSPFQKPLHDSEIAKQAVCDPGNIRVTEAPKHPISEELETPIKDSHLIPTPQAPSIAFPLANPPVAPHPREKIITIEETHEELKKQYIFQLSSLNPQERIDYCHL
modifications: left off: large carriers
notes: W1145R mutant of EGFP-NLS-TopBP1 (978-1286), analogous to the W1138R mutant of XtopBP1
For B2, which “phosphorylation of Mcm2 on S108” value (human Mcm2 on S108) is on record?
The value was “no effect”.
